The values below come from article PMC2673414 (Nucleic Acids Research, 2009).

The series concerns the molecule itself. The series is described as follows: crystal structure.

B1: human TREX2 protein (enzyme)
chain: MSEAPRAETFVFLDLEATGLPSVEPEIAELSLFAVHRSSLENPEHDESGALVLPRVLDKLTLCMCPERPFTAKASEITGLSSEGLARCRKAGFDGAVVRTLQAFLSRQAGPICLVAHNGFDYDFPLLCAELRRLGARLPRDTVCLDTLPALRGLDRAHSHGTRARGRQGYSLGSLFHRYFRAEPSAAHSAEGDVHTLLLIFLHRAAELLAWADEQARGWAHIEPMYLPPDDPSLEA
Consider B1, for which the binding result is given as “binds”.
